Data reported in the supplement of paper PMC11865577.

What was measured:
Assay in all cases: pull-down binding Z-score (relative to library population); higher = stronger binding
TO-N3 (biotin conjugate) = settings: RNA library: Library-2
Procedure, shortened: (§1)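 Heat-folded RNA library (1 μg, Cy5 or Cy3 end label, phosphate/NaCl/KCl buffer) was captured for 60 min at 25 °C on streptavidin beads displaying 100 pmol of biotin-conjugated small molecule, then washed three times. The bound fraction, eluted in hot SDS, was hybridised to a DNA barcode microarray at 55.5 °C for 20 h. Z-scores for binding were taken against the library mean and standard deviation after beads-only subtraction and trimmed averaging of replicate barcoded probes.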

[1] = system: TO-3-N3-2 (biotin conjugate); settings: RNA library: Library-2
Procedure, shortened: as §1

[2] = system: TO-N3-2 (biotin conjugate); settings: RNA library: Library-2
Procedure, shortened: as §1

[3] = system: TO-3-N3 (biotin conjugate); settings: RNA library: Library-2
Procedure, shortened: as §1

[4] = system: G-clamp-N3 (biotin conjugate); settings: RNA library: Library-1 (pre-miRNA loops + repeats)
Procedure, shortened: as §1

Row | Sequence | pull-down binding Z-score (TO-N3 (biotin conjugate)) | pull-down binding Z-score [1] | pull-down binding Z-score [2] | pull-down binding Z-score [3] | pull-down binding Z-score [4]
1 | GGUCAGGUGGUGCCCUCCUUCCAUGGGUAGAGCCAGAGAUGGUGGGUUCUGGCU [hsa-mir-6131] | 1.16 | 0.142 | 2.25 | 0.869 | 0.859
2 | CAUGCAGGCCACACUGACGGUAACGUUGCAGG [hsa-mir-431] | 1.08 | 0.263 | 1.01 | 0.647 | 1.54
3 | GUGUUUAUUUUUUACUAAAUAG [hsa-mir-4766] | -0.451 | 0.102 | -0.723 | -0.515 | -0.918
4 | CUCAGGAAUUGGAUAAGCUUUUCUGAG [hsa-mir-5194] | -0.399 | -0.272 | -0.323 | -0.212 | 0.541
5 | AGACCUUCCUUCCUUGUCU [hsa-mir-3163] | -0.558 | -0.206 | -0.35 | -0.452 | -1.91
6 | GUGUGUGGCGUGGGUGCUGCGGGGCCGUCAGGGUGCCUGCGGGACGCUCAC [hsa-mir-6765] | 1.13 | 0.334 | 1.73 | 0.665 | 1.58
7 | ACGUCUGGCCGCGUGCGCAUGU [hsa-mir-3175] | 0.838 | -0.244 | 1.89 | -0.222 | 1.55
8 | UCCAUGAAAAGAACCCAUGGG [hsa-mir-4471] | -0.608 | 0.0519 | -0.307 | -0.455 | -0.734
9 | CUUUCUGUUGUCUAAAAGAAAAGAAAG [hsa-mir-520d] | -0.415 | -0.331 | -0.127 | -0.444 | 0.0447
10 | CCAUGGUGUGCUCUGAUCCCCCUGUGG [hsa-mir-6848] | 0.592 | 0.0413 | 0.49 | 0.35 | -0.373
11 | UUUGCCUCUCUCAGAAAAUAGAGUCAAA [hsa-mir-4694] | 0.157 | -0.0805 | -0.759 | 0.229 | 0.239
12 | GUGUUCACACAUAAUGUGUACACCAUGUGUGUACAC [hsa-mir-5692b] | 0.022 | -0.272 | -0.606 | 0.192 | -0.31
13 | GAGACAACUUCCCAGUCUC [hsa-mir-6717] | -1.17 | -0.519 | -0.848 | -0.96 | -0.0467
14 | GCUGCCAUCUCCCACUGGCUGC [hsa-mir-4736] | -0.536 | -0.495 | 0.0852 | -0.569 | -0.492
15 | AGGAGAAGGUGAGACCAAUGUCCUGGGUGCCACUCCU [hsa-mir-6124] | -0.503 | -0.00463 | -0.139 | -0.524 | 0.515
16 | AGGGUGGAGCCCACUGUGGCUCCUGACUCAGCCCU [hsa-mir-6893] | -0.0778 | 0.0411 | 0.419 | -0.0543 | -0.967
17 | CUGGGAGGUGUGAUAUCGUGGUUCCUGG [hsa-mir-3689c] | 1.13 | 0.136 | 0.744 | 1.02 | 0.718
18 | GGCGCUUCUCCUUCUGAACAGAGCGCU [hsa-mir-1251] | -0.423 | -0.182 | -0.171 | -0.462 | -0.609

Row | Sequence | pull-down binding Z-score (TO-N3 (biotin conjugate)) | pull-down binding Z-score [1] | pull-down binding Z-score [2] | pull-down binding Z-score [3] | pull-down binding Z-score [4]
19 | CCAUUUACUUGAACCUUUAGGAGUGA [hsa-mir-489] | 0.319 | -0.05 | 0.625 | 0.389 | -0.68
20 | UGCAUAAAUGAAGCUGAAUGA [hsa-mir-6134] | -0.0557 | 0.378 | 0.629 | -0.352 | -0.213
21 | AUUCUGGCUAGGUGAUCAUCAGAAU [hsa-mir-5583-1] | -1.07 | -0.406 | -0.726 | -0.794 | 0.902
22 | UGUUUUUGCCAUUAAAAAUAAUGGCAUUAAAAGUAAUGGCAAAAACG [hsa-mir-548al] | -1.01 | -0.431 | -1.14 | -0.484 | -0.871
23 | UCAUAAAUAUUUUAAGGAAUGACCCGGCCCUGGGG [hsa-mir-4285] | -0.199 | 0.31 | 0.308 | -0.306 | -0.171
24 | UGACUACUUCGAAAAUGGGAAGUAGACA [hsa-mir-7849] | 0.00324 | -0.277 | -0.497 | 0.0977 | 3.04
25 | UGGAUCACGCCGACAACACUGGUCU [hsa-mir-4635] | 0.823 | 0.163 | 0.76 | 0.534 | -0.474
26 | GGCUCUGGGUCCUGCUCCUUAGAGCA [hsa-mir-2467] | 0.575 | -0.0911 | 0.837 | 0.259 | 0.344
27 | CGGGAACCUGCCUCCCG [hsa-mir-596] | 0.0562 | -0.195 | -0.232 | 0.264 | -0.566
28 | CUCAGCCUGGAAAAAGCUGAG [hsa-mir-4765] | -0.672 | -0.575 | -0.646 | -0.454 | 0.49
29 | ACUUAAGCACCAGGUAAAAUCUGGUGCUUAAGU [hsa-mir-4720] | -1.56 | -0.698 | -1.69 | -1.09 | 0.139
30 | UAGGCCCACUGCUCAGUGGAGC [hsa-mir-7847] | 0.139 | -0.0119 | 0.845 | -0.238 | 0.533
31 | GUGAGCUCAGCUCCCUGCCUCAC [hsa-mir-3622b] | 0.138 | -0.173 | 0.811 | -0.00258 | -1.4
32 | AGCCAAAAUCACCAGGGA [hsa-mir-4534] | 0.259 | 0.118 | 0.563 | -0.0499 | 0.0802
33 | GAAGGAAGGCAAGGCUGUCUGUCCAUC [hsa-mir-4800] | 1.03 | 0.513 | 0.685 | 0.852 | -1.01
34 | CUCUCUGUUGCUCUGAAGGAG [hsa-mir-346] | -0.183 | -0.318 | 0.295 | -0.271 | 1.39
35 | CACACACAAUCACCAUGUG [hsa-mir-3118-1] | -0.942 | -0.386 | -1.07 | -0.577 | -0.57
36 | GACUUCCAUGACAUGAAAUAGGAAGUC [hsa-mir-616] | -1.12 | -0.183 | -0.705 | -0.453 | 0.351
